Data on one molecule can be found in PMC4102620 (Journal of molecular biology, 2014).

The experiment has as its target yeast E1 (Uba1) (yeast, UniProt P22515 1-1024, biotin on the C-terminal biotin ligase acceptor peptide). Put plainly: fluorescent FL-UB-E1 band on non-reducing SDS-PAGE.

B1: fluorescently labeled wild type ubiquitin (FL-UB) (natural protein)
chain: not shown
modifications: fluorescein (iodoacetamide) on the unique cysteine of the N-terminal tag
As for B1, the binding result was “binds”.
